Measurements as given in patent US20100239676A1, “Stable Aerosolizable Suspensions of Proteins in Ethanol” (priority 2000, published 2010).

Assay: Stabilization of insulin suspension in 100% ethanol, activity retained by reversed phase HPLC
Assay type: physicochemical
Details: pH 7.4
Protocol: The conical tubes were then sealed with punctured parafilm, and frozen overnight at ˜−15° C. to −20° C. […] This process was started two or three days prior to the start of the experiment. […] For each sample, there were four (4) time-points prepared. […] The diluted samples were then analyzed by reversed phase HPLC method using standard techniques known to the art. The other time-points were sealed with parafilm. Four (4) different conditions were tested: (i) & (ii) samples were maintained at 37° C. with and without shaking; (iii) samples were maintained at 40° C. with shaking; and (iv) samples were maintained at room temperature with no shaking. A Labline environmental incubator/shaker was used at 37° C. and at 40° C. while shaking at 220 rpm. […] Inversion was used to gently mix.
Percent activity retained was determined by high-performance liquid chromatography (HPLC).

With “Insulin: Lyophilized human insulin, supplied from Roche Biochemical Co., suspended in 200 proof ethanol” the “Activity Retained (%)” value (2.0 months, 20 °C, shaking NA) was 90%, the “Activity Retained (%)” value (2.0 months, 40 °C, shaking 220 rpm) was 55% and the “Activity Retained (%)” value (2.5 months, 37 °C, shaking NA) was 93%.
